Source: PMC10953559
Where “and” joins values, the source holds several entries; their conditions need not be identical. Equal entries are not always repeated.

Molecular target: GroEL14 as used with the substrate proteins NanA and DapA (E. coli) (UniProt P0A6F5)
Test: native MS; CE-MS; 6 µM GroEL14 with 6 or 12 µM substrate monomers, denatured in 6.5 M GuHCl and 9 mM DTT and diluted 30-fold into GroEL14 buffer pH 7.5 (200 mM GuHCl, 0.3 mM DTT left); no ATP, no GroES; BGE 50 mM ammonium acetate pH 6.7

- share of the total signal intensity, GroEL14-DapA2 complex: 80%
- stoichiometry N (DapA monomers per GroEL14): 1 and 2
B1: dihydrodipicolinate synthase, denatured monomer (DapA) (enzyme)
chain: MFTGSIVAIVTPMDEKGNVCRASLKKLIDYHVASGTSAIVSVGTTGESATLNHDEHADVVMMTLDLADGRIPVIAGTGANATAEAISLTQRFNDSGIVGCLTVTPYYNRPSQEGLYQHFKAIAEHTDLPQILYNVPSRTGCDLLPETVGRLAKVKNIIGIKEATGNLTRVNQIKELVSDDFVLLSGDDASALDFMQLGGHGVISVTANVAARDMAQMCKLAAEGHFAEARVINQRLMPLHNKLFVEPNPIPVKWACKELGLVATDTLRLPMTPITDSGRETVRAALKHAGLL
